Where two headings read alike, the source gives them in different places.
How the values were obtained:
[1] = molecular target: microtubules (assembled from porcine brain tubulin, rhodamine-labeled, paclitaxel-stabilised) (porcine) (UniProt P02550); assay: optical trapping
[2] = molecular target: microtubules (assembled from porcine brain tubulin, rhodamine-labeled, paclitaxel-stabilised) (porcine) (UniProt P02550); assay: optical trapping; remark: listed apart in the source

Substance: KinΔC (mouse KIF5B 1-888 heavy chain with bound full-length KLC2) (from UniProt Q61768 1-888; O88448 1-599) (complex)
- mean detachment force (single molecule) [1]: 6.4 pN
- mean detachment force (single molecule) [2]: 6.3 pN

Source: paper PMC12709241
